Experimental data reported in patent US20250326862A1, “Antibody or Fragment Thereof Binding Specifically to Mertk, and Anti-Tumor Agent” (Chiome Bioscience Inc., priority 2021, published 2025).

Assays:
[1] = Test 7: in vivo ocular toxicity test, TB staining of eye sections; parameters: species or system Balb/c mice; details: eyes removed day 29, FIG. 17
Experimental: The ocular toxicity test was carried out using Balb/c mice. The mice intravenously received “20A77_mIgG1”, “24A1_mIgG1” or an isotype control antibody mIgG1 at a dose of 10 mg/kg at a frequency of twice a week. As a positive control of ocular toxicity, mice orally received a MerTK small molecule inhibitor UNC569 at a dose of 150 mg/kg for 10 days. At day 29 after the first administration, eyes were removed, fixed with a Karnovsky's fixative and then subjected to embedding in a resin, preparation of sections and toluidine blue staining (hereinafter also referred to as “TB staining”) carried out by Applied Medical Research Laboratory.

[2] = administration to mice; Non-Patent Document 3; cited from earlier work
[3] = system: mouse colon cancer cell line CT26; assay: Test 4: efficacious dosage in CT26 syngeneic tumor model; assay type: in vivo, Balb/c mice; details: vs solvent control
Experimental: (§1) CT26 cells (5×10^6 cells per mouse) were subcutaneously transplanted to Balb/c mice at the right flank. After 5 days of the tumor transplantation, the mice were divided into groups and an isotype control antibody mIgG2a and “20A77_mIgG2a” were respectively intraperitoneally administered at a dose of 10 mg/kg at a frequency of twice a week. After the administration, the tumor size was measured at a frequency of twice a week until day 19 after the tumor transplantation. The tumor size was calculated from the equation below with the minor axis and the major axis of the tumor measured using calipers:
On the basis of the procedures indicated below, anti-tumor effects of “20A77_mIgG1” and “24A1_mIgG1” according to the dosage thereof were evaluated. As “Test 3” above, a syngeneic tumor model using the mouse colon cancer cell line CT26 (ATCC) was used for the evaluation.
In the “20A77_mIgG1” administration group, a solvent (1% histidine buffer, pH 6.0) and “20A77_mIgG1” were intraperitoneally administered at a dose of 3, 10 or 30 mg/kg at a frequency of twice a week. […] The tumor size was measured at a frequency of twice a week until day 19 and 22 after the tumor transplantation for the “20A77_mIgG1” and “24A1_mIgG1” administration groups, respectively.

[4] = system: mouse colon cancer cell line CT26; assay: Test 5: combined administration with anti-PD-1 antibody in CT26 syngeneic tumor model; assay type: in vivo, Balb/c mice; details: 5 mg/kg plus anti-mouse PD-1 antibody 29F.1A12 0.3 mg/kg, twice a week until day 19; FIGS. 11 and 12
Experimental: as §1
On the basis of the procedures indicated below, anti-tumor effects of combined use of each of “20A77_mIgG1” and “24A1_mIgG1” and an anti-PD-1 antibody were evaluated. As “Test 3” above, a syngeneic tumor model using the mouse colon cancer cell line CT26 (ATCC) was used for the evaluation. Anti-PD-1 antibodies are known to have anti-tumor effects.
The administration groups received the antibodies indicated below at a frequency of twice a week. […]

Row | Molecule | TB-positive granules in the retinal pigment epithelium ([1]; positive control, 150 mg/kg oral for 10 days) | ocular toxicity: toluidine blue-positive granules and vacuoles in photoreceptor [2] | tumor growth suppressing effect ([3]; 5 mg/kg intraperitoneal twice a week, until day 22, FIGS. 9 and 10) | tumor growth suppressing effect ([3]; 30 mg/kg intraperitoneal twice a week, day 19 (20A77_mIgG1) or day 22 (24A1_mIgG1)) | TB-positive granules in the retinal pigment epithelium ([1]; 10 mg/kg intravenous twice a week) | anti-tumor effects of combined use with anti-PD-1 antibody [4]
1 | CCCCNc1ncc2c(-c3ccc(F)cc3)nn(CC3CCC(N)CC3)c2n1 (stereo not drawn) [UNC569, reference compound] | increased TB-positive granules | increased toluidine blue-positive granules and vacuoles in photoreceptor, resulting in ocular toxicity | – | – | – | –
2 | 24A1_mIgG1: recombinant mouse IgG1 antibody with 24A1 variable regions (antibody, V domains shown) VH: EVQLVESGGGLVQPKGSLKLSCAASGFTFNVYDMHWVRQAPGEGLEWVARIRSKSSNYATNYADSVKDRFTISRDDSQSMLYLQMNNLQTEDTAIYYCVRDGSHYYYALDYWGQGTSVTVSS VL: DIQMTQTTSSLSASLGDRVTISCRASQDINNYLNWYQQKLDGTVKLLIYYSSRLHSGVPSRFSGSGSGTDYSLTISNLEQEDIATYFCQQGKMFPWTFGGGTKLEIK | – | – | significant tumor growth suppression | significant tumor growth suppression | no increase in TB-positive granules was observed | had enhanced anti-tumor effects
